B1: ragweed allergen Amb a 1 (protein, UniProt P27759 26-396, looked up)
chain: AEDLQEILPVNETRRLTTSGAYNIIDGCWRGKADWAENRKALADCAQGFGKGTVGGKDGDIYTVTSELDDDVANPKEGTLRFGAAQNRPLWIIFERDMVIRLDKEMVVNSDKTIDGRGAKVEIINAGFTLNGVKNVIIHNINMHDVKVNPGGLIKSNDGPAAPRAGSDGDAISISGSSQIWIDHCSLSKSVDGLVDAKLGTTRLTVSNSLFTQHQFVLLFGAGDENIEDRGMLATVAFNTFTDNVDQRMPRCRHGFFQVVNNNYDKWGSYAIGGSASPTILSQGNRFCAPDERSKKNVLGRHGEAAAESMKWNWRTNKDVLENGAIFVASGVDPVLTPEQSAGMIPAEPGESALSLTSSAGVLSCQPGAPC
B2: AIC-L (covalent conjugate of Amb a 1 and ISS-containing polynucleotide SEQ ID NO:1, low extent of conjugation) (protein, ragweed, UniProt P27759 26-396, looked up)
chain: B1 chain
modifications: average of 2-3 oligonucleotides (5' thio ISS oligonucleotide, SEQ ID NO:1) per Amb a 1 molecule, linked through the heterobifunctional linker sSMCC; Amb a 1 blocked with N-ethyl maleimide before activation
B3: AIC-M (covalent conjugate of Amb a 1 and ISS-containing polynucleotide SEQ ID NO:1, medium extent of conjugation) (protein, ragweed, UniProt P27759 26-396, looked up)
chain: B1 chain
modifications: average of 3.5 to 4.5 oligonucleotides (5' thio ISS oligonucleotide, SEQ ID NO:1) per Amb a 1 molecule, linked through the heterobifunctional linker sSMCC; Amb a 1 blocked with N-ethyl maleimide before activation
B4: AIC-H (covalent conjugate of Amb a 1 and ISS-containing polynucleotide SEQ ID NO:1, high extent of conjugation) (protein, ragweed, UniProt P27759 26-396, looked up)
chain: B1 chain
modifications: average of >5.5 oligonucleotides (5' thio ISS oligonucleotide, SEQ ID NO:1) per Amb a 1 molecule, linked through the heterobifunctional linker sSMCC; Amb a 1 blocked with N-ethyl maleimide before activation

What was measured:
[1] = target: IgE on basophils of ragweed allergic patients; assay: cell-based or functional assay
[2] = target: Amb a 1 specific IgE (in serum); assay: competition ELISA: soluble competitor pre-incubated with serum, IgE binding to plate-coated Amb a 1
[3] = target: Amb a 1 specific IgE (in serum); assay: competition ELISA, ratio against soluble Amb a 1 as reference
[4] = target: Amb a 1 specific IgE (in serum); assay: competition ELISA: soluble competitor pre-incubated with serum, IgE binding to plate-coated Amb a 1; two lots gave the same value

Binder	HR40 (concentration required to induce 40% histamine release), patient four [1]	HR40 (concentration required to induce 40% histamine release), patient one [1]	HR40 (concentration required to induce 40% histamine release), patient three [1]	HR40 (concentration required to induce 40% histamine release), patient two [1]	HR40, mean of four patients [1]	IC50 [2]	Ratio AIC:Amb a 1 of HR40 [1]	ratio of AIC-M to Amb a 1 for 50% inhibition [3]	IC50 [4]	ratio of AIC-H to Amb a 1 for 50% inhibition [3]
B1	0.0003 µg/mL	0.0002 µg/mL	0.0003 µg/mL	0.0002 µg/mL	0.0003 µg/mL	0.04 mg/L				
B2	0.026 µg/mL	0.02 µg/mL	0.01 µg/mL	0.018 µg/mL	0.0185 µg/mL		62 fold			
B3	0.07 µg/mL	0.03 µg/mL	0.03 µg/mL	0.028 µg/mL	0.0395 µg/mL	0.12 mg/L	132 fold	3		
B4	> 1 µg/mL	0.5 µg/mL	> 0.1 µg/mL	> 0.1 µg/mL	> 0.425 µg/mL		> 1420 fold		0.19 mg/L	4.75
